# Assay results reported in the RNAGym collection of RNA variant scans (doi:10.1021/acssynbio.7b00057).
# B1: Pistol ribozyme (parent)
# chain: GGGUCGUUGUUCCAUAAUCGCGUGGAUAUGGCACGCAAGUUUCUACCGGGCACCGUAAAUGUCCGACUGGAGCCGUUCGGGCGGCUAUAAACAGACCUCAGGCCCGAAGCGUGGCGGCACCUGCCGCCGGUGGUAAAAAAGAUCGGAAGAGCACACGUCU
# Variants of: B1
# Experiment: aptazyme ON/OFF ratio, guanine; higher = stronger switching; co-transcriptional cleavage with and without guanine
row,Variant,aptazyme ON/OFF ratio
1,U7G U8A G9A U10G U11G C12A C13U,1.17
2,U7A U8C G9U U10G C12A C13U,1.07
3,U7G U8C G9C U10A U11A C13A,1.09
4,U7G U8G G9A U10C U11C C12A C13A,1.19
5,U7A U8G G9C U10G U11A C12A C13U,1.47
6,U8A G9U U10A U11G C12G C13A,1.1
7,U7A U8C U11A C12G C13G,1.1
8,U7C U8A U10C U11G C12A C13G,1.21
9,U7C U8G G9A U11C C12G C13G,1.17
10,U7G U8A C12U C13U,1.42
11,U7A U8G G9U C12U,1.62
12,U8A G9C U10A C12G C13G,1.11
13,U7A U8A G9A C12A,1.46
14,U7C U8A U10G U11C C12U C13A,1.35
15,U7C U8G G9A U10A U11A C12U C13A,1.17
16,U7A U8C G9C U10C U11A C13U,1.04
17,U7C G9U U10G C12G C13U,1.11
18,U7G U8C G9U U10C C13U,1.47
19,U7C U8G G9C U11C C12U C13U,1.07
20,U8C G9C U11A C12U C13A,1.12
21,U7A U8G G9A U10A U11G C12G C13U,1.48

row,Variant,aptazyme ON/OFF ratio
1,U7C U8A G9A U10G U11G C13A,1.11
2,U7G G9A U11G C12U C13A,1.09
3,U7A U8G G9C U11A C12G C13A,1.11
4,U7A U8G G9C U10A U11G C13G,1.26
5,U7C U8G G9U U10G U11C C12A C13A,1.11
6,U7C U8G G9C U10A C12A C13U,1.18
7,U7G U8A U10A U11G C12A C13G,1.19
8,U7A U8A G9U U10G C12G C13G,1.08
9,U7C U8A U11A C13U,1.12
10,U7G U8C G9C U10A U11C C13U,1.25
11,U7A G9U U10C U11A C12A C13A,1.2
12,U7A U8G G9C U11A C12U,1.53
13,U7C U8C G9U U10G U11G C12G C13U,1.06
14,U7C U8G G9U U10G U11C C12G C13G,1.07
15,U7C U8C G9U U10A U11A C12A C13A,1.12
16,U7G G9A U10C C12U,1.59
17,U7G U8C G9A U10G U11A C12U C13U,1.13
18,U7G U8G G9C U10C U11C C12U,1.18
19,U7C U8A U10A U11C C12G C13G,1.22
20,U7C U8A G9C U10G C12G,1.28
21,U7C U8G G9A U10G U11G C12G C13U,1.24

row,Variant,aptazyme ON/OFF ratio
1,U7G G9A U10G U11G C13G,1.09
2,U7C U8G U10C U11G C12G,1.32
3,U7G U8C G9A U10G U11G C12U C13U,1.52
4,U7C U8A G9U C13A,1.16
5,U7C U8G G9C U11A,1.86
6,U7G U8C G9C U11C C13U,1.38
7,U7A U8G U11C C12G C13U,1.2
8,U7A U8A G9U U10C U11A C12U,1.23
9,U7G U8G G9A C12U C13U,1.41
10,U7C U8C G9A C12G C13U,1.24
11,U8A U10G U11G C12A C13U,1.44
12,U7G G9U U10A U11C C12G C13U,1.27
13,U8G U10A U11A C12A C13A,1.19
14,U7A U8G G9A U10C U11C,1.02
15,U7C U8C G9C U10A U11G C12U,1.05
16,U7G U8A U10A U11G C13A,1.23
17,U7C U8G G9C U10A U11A C12U C13G,1.17
18,U7C U8A U10C U11G C12U C13G,1.16
19,U7G G9U U11C C12U C13A,1.37
20,U8G G9A U10A U11C C12G C13U,1.36
21,U8A G9U U11A C12U C13U,1.08

row,Variant,aptazyme ON/OFF ratio
1,U7G U8A G9A U10C U11G C12A C13A,1.07
2,U10G C12G,1.12
3,U7A U8C G9C C13A,1.07
4,U7G U8C G9A U10C U11C C12G C13G,1.05
5,U8A C13G,1.11
6,U7C U8A G9U U10G U11C C12A,1.21
7,U7C U8C U10G U11A,1.24
8,U8G G9A U11A C13U,1.23
9,U7G U8C G9C U10G U11A C13G,1.19
10,U7C G9A U10G U11C C12U,1.18
11,U7A U8C G9A U10A U11A C12G C13U,1.21
12,U8A G9C U11C C13U,1.06
13,U7G U8A G9C U10G U11G C12G C13A,1.05
14,U8C U10C C12U C13U,1.41
15,U7A U8G G9A U10G C12U C13U,1.24
16,U7C G9A U10A C12A C13G,1.14
17,U8G U10A C12U,1.17
18,U7A U8A U10A U11G,1.17
19,U7C U8A G9A U10C U11A C13U,1.16
20,U7C U8C U10A U11C C12U C13U,1.07
21,U7G U8G G9U U10A U11A C12U C13A,1.11
